Laboratory results published in patent publication US9273304B2, “Inactivation method” (Thermo Fisher Scientific Baltics UAB, priority 2006, dated 2016).

What was measured:
Taq DNA polymerase [1] = target: T1, Taq DNA polymerase (Thermus aquaticus, UniProt P19821); test: Temperature effect on activity of modified versus unmodified Taq DNA polymerase; type: biochemical; details: FIG. 7
Procedure: The activity assay for both DNA polymerases was as described in the Example 2 with the following modifications: • 1. DNA polymerization using the unmodified DNA polymerase was carried out in the buffer of the following composition: 10 mM Tris-HCl (pH 8.8 at 25° C.), 50 mM KCl, 1.5 mM MgCl2, and 0.08% Nonidet P40. • 2. DNA polymerization using the modified DNA polymerase was carried out in the buffer of the following composition: 20 mM Tris-HCl (pH 8.3 at 25° C.), 20 mM KCl, 5 mM (NH4)2SO4, and 1.5 mM MgCl2.
Enzyme activities at different temperatures were normalized to the activity of the unmodified Taq DNA polymerase at 70° C.

Taq DNA polymerase [2] = target: T1, Taq DNA polymerase; test: Polymerase activity assay: incorporation of [3H]-dTTP into the polynucleotide adsorbed on DE-81 in 30 min at 70° C.; type: biochemical; details: for Activity at 70° C. (%) After 10 min. preheating at 95° C. / Activity at 70° C. (%) Without preheating at 95° C.: aqueous solution
Procedure: The measure of the enzyme activity was incorporation of [^3H]-dTTP into polynucleotide fraction. One unit of polymerase activity is defined as the enzyme amount which incorporates 10 nmoles of deoxyribonucleotides into the polynucleotide adsorbed on DE-81 in 30 min at 70° C.
For activity assays, Taq DNA polymerase was diluted up to 4 u/ml with the dilution buffer of the following composition: 20 mM Tris-HCl (pH 8.8 at 25° C.), 1 mM EDTA, 1 mM DTT, and BSA (0.1 mg/ml). Reactions were carried out at 70° C. for 30 min with 5 μl of the diluted enzyme in 50 μl of the reaction buffer of the following composition: 67 mM Tris-HCl (pH 8.8 at 25° C.), 50 mM NaCl, 6.7 mM MgCl2, 1 mM DTT, and BSA (0.1 mg/ml). The reaction buffer was supplemented with 0.2 mM dNTP, [3H]-dTTP (0.4 MBq/ml) and 0.75 mM activated DNA from calf thymus.
Activity of the modified enzymes was measured either with the pre-incubation step, or without it, for 10 min at 95° C. in the pre-heating buffer of the following composition: 20 mM Tris-HCl (pH 8.25 at 25° C.), 100 mM KCl, 2 mM MgCl2, 0.5% Tween 20, 0.5% Nonidet P40, and 16% glycerol.
Aliquots (35 μl) of the enzyme solution were mixed with 2.25 μl aliquots of the N-ethoxycarbonyl-2,3-dimethylmaleinimide solutions described above resulting in the following molar ratios of Taq DNA polymerase to N-ethoxycarbonyl-2,3-dimethylmaleinimide: 1/1280 1/640, 1/320, 1/160, 1/110, 1/80, 1/40. The mixtures were incubated for 20 hours at 4° C. to modify the Taq DNA polymerase. Control samples, in which the enzyme was left unmodified (e.g., the ratio was 1/0), were obtained by mixing the Taq DNA polymerase with a 2.25 μl aliquot of DMF. These control samples were incubated under the same conditions as the modified ones.
The samples of the unmodified Taq DNA polymerase and the modified Taq DNA polymerases were diluted 250-fold in the pre-heating buffer (see Example 2) and activities of the modified enzyme were measured both before heat-reactivation and after it, as described in the Example 2. Activities of both inactivated and heat-reactivated DNA polymerases were determined as described in the Example 2, and the data were normalized to activity of the unmodified Taq DNA polymerase
Aliquots (20.6 μl) of the diluted enzyme solution were mixed with 1 μl of N-isobutoxycarbonyl-2,3-dimethylmaleinimide solutions described above resulting in different molar ratios of Taq DNA polymerase to N-isobutoxycarbonyl-2,3-dimethylmaleinimide (1/320, 1/160, 1/80 and 1/40). The mixtures were incubated 20 hours at 4° C. to modify the Taq DNA polymerase. Control samples, in which the enzyme was left unmodified (e.g., the ratio was 1/0), were obtained by mixing the Taq DNA polymerase with a 1 μl aliquot of DMF. These control samples were incubated under the same conditions as the modified ones. The heat-reactivation of the modified enzymes was performed as described in the Example 3.

[3] = molar ratio Taq DNA polymerase/N-etoxycarbonyl-2,3-dimethylmaleinimide 1/80
[4] = molar ratio Taq DNA polymerase/N-etoxycarbonyl-2,3-dimethylmaleinimide 1/110
[5] = molar ratio Taq DNA polymerase/N-etoxycarbonyl-2,3-dimethylmaleinimide 1/160
[6] = molar ratio Taq DNA polymerase/N-etoxycarbonyl-2,3-dimethylmaleinimide 1/320
[7] = molar ratio Taq DNA polymerase/N-etoxycarbonyl-2,3-dimethylmaleinimide 1/640
[8] = molar ratio Taq DNA polymerase/N-etoxycarbonyl-2,3-dimethylmaleinimide 1/1280

T1 sequence (P19821 whole entry): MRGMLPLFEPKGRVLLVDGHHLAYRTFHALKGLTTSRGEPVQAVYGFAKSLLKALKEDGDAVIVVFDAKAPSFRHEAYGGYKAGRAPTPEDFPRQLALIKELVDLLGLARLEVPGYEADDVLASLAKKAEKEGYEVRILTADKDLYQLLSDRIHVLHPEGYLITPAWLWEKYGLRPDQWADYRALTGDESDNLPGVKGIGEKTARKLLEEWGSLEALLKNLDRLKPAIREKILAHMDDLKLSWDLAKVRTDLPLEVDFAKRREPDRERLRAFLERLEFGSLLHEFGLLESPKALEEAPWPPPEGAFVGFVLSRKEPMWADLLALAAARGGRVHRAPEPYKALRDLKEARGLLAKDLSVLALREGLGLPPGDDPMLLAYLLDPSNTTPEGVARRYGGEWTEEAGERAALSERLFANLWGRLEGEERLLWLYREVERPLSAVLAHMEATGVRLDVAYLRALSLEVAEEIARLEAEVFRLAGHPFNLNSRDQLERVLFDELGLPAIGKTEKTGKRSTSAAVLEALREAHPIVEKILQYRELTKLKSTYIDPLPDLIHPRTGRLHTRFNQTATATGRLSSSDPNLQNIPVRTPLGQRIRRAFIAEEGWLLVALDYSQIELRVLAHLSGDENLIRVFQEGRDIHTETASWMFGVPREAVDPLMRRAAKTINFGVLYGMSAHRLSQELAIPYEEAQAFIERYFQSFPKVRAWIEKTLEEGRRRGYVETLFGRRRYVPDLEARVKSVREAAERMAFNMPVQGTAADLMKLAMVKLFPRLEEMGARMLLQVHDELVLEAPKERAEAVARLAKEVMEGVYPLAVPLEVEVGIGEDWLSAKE

Taq DNA polymerase modified with N-etoxycarbonyl-2,3-dimethylmaleinimide: Recombinant Taq DNA polymerase reversibly inactivated by reaction with N-ethoxycarbonyl-2,3-dimethylmaleinimide in aqueous solution (preferred molar ratio 1/110)
residual activity at 70° C. (Taq DNA polymerase [1]; 70° C., normalized to unmodified Taq DNA polymerase at 70° C.): ~20%
activity at different temperatures up to 50° C. (Taq DNA polymerase [1]; up to 50° C., without reactivation): practically inactive
restoration of the enzyme activity after incubation for 10 min at 94° C. (Taq DNA polymerase [2]; incubation 10 min at 94° C.): almost in the complete restoration of the enzyme activity
Activity at 70° C. (%) After 10 min. preheating at 95° C. (Taq DNA polymerase [2]; molar ratio Taq DNA polymerase/N-etoxycarbonyl-2,3-dimethylmaleinimide 1/40): ~100%
Activity at 70° C. (%) Without preheating at 95° C. (Taq DNA polymerase [2]; molar ratio Taq DNA polymerase/N-etoxycarbonyl-2,3-dimethylmaleinimide 1/40, normalized to unmodified enzyme): ~30%
Activity at 70° C. (%) After 10 min. preheating at 95° C. (Taq DNA polymerase [2]; [3]): ~90%
Activity at 70° C. (%) Without preheating at 95° C. (Taq DNA polymerase [2]; [3]): ~20%
Activity at 70° C. (%) After 10 min. preheating at 95° C. (Taq DNA polymerase [2]; [4]): ~100%
Activity at 70° C. (%) Without preheating at 95° C. (Taq DNA polymerase [2]; [4]): ~20%
Activity at 70° C. (%) After 10 min. preheating at 95° C. (Taq DNA polymerase [2]; [5]): ~90%
Activity at 70° C. (%) Without preheating at 95° C. (Taq DNA polymerase [2]; [5]): ~20%
Activity at 70° C. (%) After 10 min. preheating at 95° C. (Taq DNA polymerase [2]; [6]): ~90%
Activity at 70° C. (%) Without preheating at 95° C. (Taq DNA polymerase [2]; [6]): ~30%
Activity at 70° C. (%) After 10 min. preheating at 95° C. (Taq DNA polymerase [2]; [7]): ~50%
Activity at 70° C. (%) Without preheating at 95° C. (Taq DNA polymerase [2]; [7]): ~40%
Activity at 70° C. (%) After 10 min. preheating at 95° C. (Taq DNA polymerase [2]; [8]): ~80%
Activity at 70° C. (%) Without preheating at 95° C. (Taq DNA polymerase [2]; [8]): ~90%
specific activity retained at 70° C. temperature without preheating (Taq DNA polymerase [2]; several independent experiments, preferred modification (N-ethoxycarbonyl-2,3-dimethylmaleinimide, aqueous, 1/110)): 21±6%
